Measured values from patent publication US20220259289A1 (Janssen / Centocor, published 2022).
Changes are numbered by the printed parent chain.

B1: ISOP193ER9P1A11 (designed binder, not shown: small tags and cut ends)
chain: LPAPKNLVVSRVTEDSARLSWTAPDAAFDSFAIQYQEYVAHGEAIVLTVPGSERSYDLTGLKPGTEYHVRISGVKGGGVSWPLSAIFTT
B2: ISOP193ER9P1B5 (designed binder, not shown: small tags and cut ends)
chain: B1 chain with F87V
B3: ISOP193ER9P1E4 (designed binder, not shown: small tags and cut ends)
chain: B1 chain with Q34I, A40K, H41S, S72G, G78L, V79L, W81L
B4: ISOP193ER9P1H2 (designed binder, not shown: small tags and cut ends)
chain: LPAPKNLVVSRVTEDSARLSWTAPDAAFDSFRISYLEDVYYGEAIVLTVPGSERSYDLTGLKPGTEYHVGIHGVKGGIDSFPLSAIFTT
B5: ISOP193BR9P1B10 (designed binder, not shown: small tags and cut ends)
chain: LPAPKNLVVSRVTEDSARLSWAWNRHDFDSFLIQYQESEKVGEAIVLTVPGSERSYDLTGLKPGTEYTVSIYGVHWTVLRPFIDSNPLSAIFTT
B6: ISOP193ER9P1A8 (designed binder, not shown: small tags and cut ends)
chain: LPAPKNLVVSRVTEDSARLSWTAPDAAFDSLDIYYFEHPVGGEAIVLTVPGSERSYDLTGLKPGTEYLVTIYGVKGGYLSMPLSAIFTT
B7: ISOP193HR9P1B11 (designed binder, not shown: small tags and cut ends)
chain: B6 chain with L31F, D32E, H38L, P39R, V40L, G77C, Y78G, L79Y, M81D
B8: ISOP193FR9P1A5 (designed binder, not shown: small tags and cut ends)
chain: LPAPKNLVVSRVTEDSARLSWTAPDAAFDSFEIYYIEPIAPGEAIVLTVPGSERSYDLTGLKPGTEYWVTIYGVKGCDWSDPLSAIFTT
B9: ISOP193FR9P1G7 (designed binder, not shown: small tags and cut ends)
chain: B8 chain with E32H, Y34H, I36L, P38G, I39E, A40W, P41G, W68L
B10: ISOP193HR9P1A5 (designed binder, not shown: small tags and cut ends)
chain: B6 chain with L31F, F36Y, H38L, P39R, V40L, G77C, Y78G, L79Y, M81A, F87V
B11: ISOP193HR9P1C8 (designed binder, not shown: small tags and cut ends)
chain: B6 chain with L31F, D32E, H38L, P39R, V40L, Y78G, L79Y, M81T
B12: ISOP193FR9P1G9 (designed binder, not shown: small tags and cut ends)
chain: B8 chain with V8F, E32Q, I36R, P38Q, I39W, A40W, P41D, W68L
B13: ISOP193HR9P1C7 (designed binder, not shown: small tags and cut ends)
chain: B8 chain with I36L, P38L, I39D, A40S, P41D, W68I, G76V, D78T, W79G, D81R
B14: ISOP193FR9P1G8 (designed binder, not shown: small tags and cut ends)
chain: B8 chain with I36F, P38N, I39E, A40L, P41G, W68L
B15: ISOP193HR9P1B7 (designed binder, not shown: small tags and cut ends)
chain: B8 chain with I36F, P38L, I39R, A40L, P41G, W68L, T70S, D78G, W79Y
B16: ISOP193FR9P1H6 (designed binder, not shown: small tags and cut ends)
chain: B8 chain with E32D, Y34N, I36F, P38Q, I39P, A40K, P41G, W68L
B17: ISOP193ER9P1F7 (designed binder, not shown: small tags and cut ends)
chain: B6 chain with R18H, L31F
B18: ISOP193ER9P1H11 (designed binder, not shown: small tags and cut ends)
chain: B6 chain with L31F, T70A, Y78V, L79F, M81H
B19: ISOP193FR9P1G11 (designed binder, not shown: small tags and cut ends)
chain: B8 chain with E32T, I36F, P38N, I39E, A40N, P41G, W68L
B20: ISOP193FR9P1E10 (designed binder, not shown: small tags and cut ends)
chain: B8 chain with A23T, E32H, Y34H, I36L, P38G, I39E, A40W, P41G, W68L
B21: ISOP193FR9P1D5 (designed binder, not shown: small tags and cut ends)
chain: B8 chain with E32Y, Y34R, P38D, I39V, A40D, P41F, W68L
B22: ISOP193FR9P1D7 (designed binder, not shown: small tags and cut ends)
chain: B8 chain with I36A, P38Y, I39F, A40K, P41N, W68L, F87S
B23: ISOP193FR9P1G4 (designed binder, not shown: small tags and cut ends)
chain: B8 chain with I36F, P38N, I39E, A40L, P41G, W68L, C77G
B24: ISOP193FR9P1H9 (designed binder, not shown: small tags and cut ends)
chain: B8 chain with I36D, P38L, I39R, A40N, W68A, C77G, D78R, W79Y, D81P
B25: ISOP193HR9P1E2 (designed binder, not shown: small tags and cut ends)
chain: B8 chain with I36L, P38W, I39C, A40S, P41G, W68L, D78A, W79A
B26: ISOP193HR9P1A7 (designed binder, not shown: small tags and cut ends)
chain: B6 chain with L31F, F36Y, H38L, P39R, V40L, G76V, G77C, Y78N, L79A, M81T
B27: ISOP193FR9P1F8 (designed binder, not shown: small tags and cut ends)
chain: B8 chain with E32D, Y34N, I36F, P38N, I39E, A40L, P41G, W68L
B28: ISOP193HR9P1D11 (designed binder, not shown: small tags and cut ends)
chain: B6 chain with L31F, F36Y, H38L, P39R, V40L, G76V, G77C, Y78E, L79Q, M81Y
B29: ISOP193FR9P1C9 (designed binder, not shown: small tags and cut ends)
chain: B8 chain with E32Q, I36F, P38W, I39V, A40V, P41G, W68L
B30: ISOP193FR9P1C1 (designed binder, not shown: small tags and cut ends)
chain: B8 chain with I36F, P38N, I39E, A40N, P41G, W68L
B31: ISOP193HR9P1D8 (designed binder, not shown: small tags and cut ends)
chain: B8 chain with E32D, I36L, P38S, I39G, A40R, P41D, W68L, T70S, D78G, W79Y
B32: ISOP193ER9P1E8 (designed binder, not shown: small tags and cut ends)
chain: B6 chain with L31F, Y78E, M81K
B33: ISOP193HR9P1A6 (designed binder, not shown: small tags and cut ends)
chain: B8 chain with E32D, I36Y, P38L, I39R, A40L, P41G, W68L, T70S, D78G, W79Y
B34: ISOP193ER9P1C8 (designed binder, not shown: small tags and cut ends)
chain: B6 chain with L31F, Y78T, L79Y, M81L
B35: ISOP193FR9P1C5 (designed binder, not shown: small tags and cut ends)
chain: B8 chain with E32H, I36L, P38Q, I39Y, A40S, P41R, W68L
B36: ISOP193GR9P1A7 (designed binder, not shown: small tags and cut ends)
chain: LPAPKNLVVSRVTEDSARLSWTAPDAAFDSFAIFYHEFANPGEAIDLPVPGSERSYDLTGLKPGTEYDVRIYGVKGGTASIPLDAEFTT

Biological target: T1, recombinant biotinylated CD137 protein (Fc-fusion protein, R&D Systems 838-4B) (human, UniProt Q07011 24-186, biotinylated, sites not stated)
T1 construct: Bought Fc fusion; also called CD137-Fc
Assay: ELISA, lysate on biotinylated CD137-Fc
Method in brief: (§1)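 Biotinylated CD137-Fc, an unrelated Fc-fusion protein or human serum albumin captured 1 h on streptavidin plates blocked in Starting Block T20; diluted bacterial lysate applied 1 h. Bound binders detected with HRP-conjugated anti-Centyrin antibody (PAB25) for 1 h, then POD substrate read-out.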

ELISA CD137 (RLU) | Binder
1.28e+07 RLU | B1
1.27e+07 RLU | B2
1.26e+07 RLU | B3
5.18e+06 RLU | B4
9.73e+06 RLU | B5
1.43e+07 RLU | B6
1.66e+07 RLU | B7
9.07e+06 RLU | B8
5.5e+06 RLU | B9
1.49e+07 RLU | B10
1.82e+07 RLU | B11
1.28e+07 RLU | B12
3.44e+06 RLU | B13
1.45e+07 RLU | B14
1.64e+07 RLU | B15
1.12e+07 RLU | B16
1.51e+07 RLU | B17
2.08e+06 RLU | B18

ELISA CD137 (RLU) | Binder
1.08e+07 RLU | B19
2.05e+06 RLU | B20
6.05e+06 RLU | B21
2.2e+06 RLU | B22
1.4e+07 RLU | B23
2.42e+06 RLU | B24
9.02e+06 RLU | B25
1.48e+07 RLU | B26
8.57e+06 RLU | B27
1.42e+07 RLU | B28
1.23e+07 RLU | B29
1.41e+07 RLU | B30
6.27e+06 RLU | B31
1.64e+07 RLU | B32
1.46e+07 RLU | B33
1.67e+07 RLU | B34
8.66e+06 RLU | B35
2.15e+06 RLU | B36

Biological target: unrelated Fc-fused recombinant protein
Assay: ELISA, negative control Fc protein

ELISA Fc Control (RLU) | Binder
1200 RLU | B1
1200 RLU | B2
1680 RLU | B3
1360 RLU | B4
2640 RLU | B5
1440 RLU | B6
15000 RLU | B7
95100 RLU | B8
42300 RLU | B9
6080 RLU | B10
1360 RLU | B11
33600 RLU | B12
71400 RLU | B13
25100 RLU | B14
13000 RLU | B15
88300 RLU | B16
1200 RLU | B17
1360 RLU | B18

ELISA Fc Control (RLU) | Binder
60600 RLU | B19
133000 RLU | B20
51700 RLU | B21
15000 RLU | B22
1840 RLU | B23
2000 RLU | B24
13100 RLU | B25
48900 RLU | B26
25700 RLU | B27
48700 RLU | B28
21000 RLU | B29
36800 RLU | B30
10900 RLU | B31
880 RLU | B32
25000 RLU | B33
1040 RLU | B34
79300 RLU | B35
1040 RLU | B36

Biological target: T2, human serum albumin (human, UniProt P02768 25-609)
T2 construct: Negative control of the ELISA; also called HSA
Assay: ELISA, negative control HSA
Method in brief: as §1

T2 sequence (P02768 25-609 limits assumed): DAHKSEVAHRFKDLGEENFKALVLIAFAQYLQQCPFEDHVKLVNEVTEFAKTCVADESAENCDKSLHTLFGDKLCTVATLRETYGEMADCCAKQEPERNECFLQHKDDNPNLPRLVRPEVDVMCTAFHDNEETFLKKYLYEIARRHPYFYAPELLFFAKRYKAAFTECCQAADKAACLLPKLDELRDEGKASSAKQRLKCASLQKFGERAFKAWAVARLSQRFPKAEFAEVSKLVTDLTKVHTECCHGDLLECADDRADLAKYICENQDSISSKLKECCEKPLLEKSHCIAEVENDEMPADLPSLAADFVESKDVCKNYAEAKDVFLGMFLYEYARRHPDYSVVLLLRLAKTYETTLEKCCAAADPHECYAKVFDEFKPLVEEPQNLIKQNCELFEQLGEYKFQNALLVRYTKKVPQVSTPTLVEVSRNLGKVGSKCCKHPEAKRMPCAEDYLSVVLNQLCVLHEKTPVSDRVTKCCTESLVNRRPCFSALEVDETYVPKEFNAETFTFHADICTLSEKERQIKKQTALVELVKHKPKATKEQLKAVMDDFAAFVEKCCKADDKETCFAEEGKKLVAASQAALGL

ELISA HSA (RLU) | Binder
640 RLU | B1
400 RLU | B2
480 RLU | B3
560 RLU | B4
1200 RLU | B5
400 RLU | B6
560 RLU | B11
480 RLU | B17
640 RLU | B18
640 RLU | B23
800 RLU | B24
480 RLU | B32
400 RLU | B34
480 RLU | B36

Biological target: human serum albumin (human) (UniProt P02768)
Assay: ELISA, negative control HSA

Sequence of human serum albumin (human) (P02768 25-609 limits assumed): as above

ELISA HSA (RLU) | Binder
4080 RLU | B7
26200 RLU | B8
11000 RLU | B9
2080 RLU | B10
6800 RLU | B12
10000 RLU | B13
5040 RLU | B14
2240 RLU | B15
23000 RLU | B16
11000 RLU | B19
31000 RLU | B20
10800 RLU | B21
2640 RLU | B22
3840 RLU | B25
12600 RLU | B26
5040 RLU | B27
6240 RLU | B28
4000 RLU | B29
8160 RLU | B30
2640 RLU | B31
5120 RLU | B33
19200 RLU | B35

Biological target: extracellular domain of human CD137 on the surface of CHO-K1 cells (human, UniProt Q07011 24-186)
Assay: flow cytometry on CHO-K1 cells with human CD137 ECD
Procedure: Cell surface binding was analyzed via flow cytometry. Cenyrins were prepared at a maximal concentration of 500 nM in the presence of 125 nM anti His-mIgG1 antibody and then serially diluted in PBS/1% FCS buffer. Samples were then applied to approx 100 000 CHO-Kl cells expressing the extracellular domain of human CD137 on their surface. Unbound Centyrin/Antibody complexes were washed away and bound FN3 domains were detected by the addition of goat anti mouse-FITC labeled antibody. Samples were then aquired by flow cytometry. Subsequently, Mean flurescence intensity was plotted against the log Centyrin concentration and EC50 values were calculated by nonlinear regression using GraphPad Prism.

EC50 | Binder
0.0106 µM | B1
0.00734 µM | B2
0.279 µM | B3
0.0275 µM | B4
0.134 µM | B5
0.017 µM | B6
0.00327 µM | B11
0.025 µM | B17
0.184 µM | B18
0.0269 µM | B23
0.0727 µM | B24
0.0177 µM | B32
0.0124 µM | B34
0.606 µM | B36
